Measurements as given in article PMC9701220, “Molecular basis for glycan recognition and reaction priming of eukaryotic oligosaccharyltransferase” (Nature Communications, 2022).
Values belong to the binder of their own block, whether it stands above or below them. The star is where a group is joined. 5‑TAMRA = CN(C)c1ccc2c(-c3ccc(C(=O)*)cc3C(=O)[O-])c3ccc(N(C)C)cc3[o+]c2c1

Assays:
Conditions in all cases: both partners purified
[1] = target: T1, S. cerevisiae oligosaccharyltransferase (OST) complex, OST3-containing (S. cerevisiae, UniProt P39007 1-718; P41543 23-476; Q92316 1-86; P48439 23-350; Q99380 1-36; P46964 …); experiment: cryo-EM structure; digitonin-purified OST 18 uM incubated with 500 uM TAMRA-YANATS peptide for 15 min before vitrification, no LLO; the sample gave two states, peptide-bound (2.8 A) and apo (2.9 A)
T1 construct: STT3, catalytic subunit of S. cerevisiae OST; OST1, subunit of S. cerevisiae OST (subcomplex I); OST5, subunit of S. cerevisiae OST (subcomplex I); OST3, oxidoreductase subunit of S. cerevisiae OST (subcomplex II); expressed from the plasmid YEp352-OST3 in an ost6 deletion strain; OST4, subunit of S. cerevisiae OST (subcomplex II); genomic OST4-1D4; OST2, subunit of S. cerevisiae OST (subcomplex …)
T1 sequence (P41543 23-476, chain 2 of 4): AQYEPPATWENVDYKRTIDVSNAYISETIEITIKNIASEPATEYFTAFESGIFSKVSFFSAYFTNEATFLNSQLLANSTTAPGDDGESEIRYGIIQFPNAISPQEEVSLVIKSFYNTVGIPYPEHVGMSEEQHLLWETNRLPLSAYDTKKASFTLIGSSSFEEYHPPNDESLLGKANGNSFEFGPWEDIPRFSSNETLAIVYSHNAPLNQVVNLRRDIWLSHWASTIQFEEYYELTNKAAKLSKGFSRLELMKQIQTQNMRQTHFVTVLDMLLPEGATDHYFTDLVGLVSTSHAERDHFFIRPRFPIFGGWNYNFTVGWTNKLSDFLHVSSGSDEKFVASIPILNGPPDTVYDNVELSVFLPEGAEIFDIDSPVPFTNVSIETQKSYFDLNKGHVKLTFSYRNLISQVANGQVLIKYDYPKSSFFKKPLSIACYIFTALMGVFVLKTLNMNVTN
T1 sequence (Q92316 whole entry, chain 3 of 4): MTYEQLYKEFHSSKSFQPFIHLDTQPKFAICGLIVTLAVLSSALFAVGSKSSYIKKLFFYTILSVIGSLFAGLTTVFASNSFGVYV
T1 sequence (Q99380 whole entry, chain 5 of 4): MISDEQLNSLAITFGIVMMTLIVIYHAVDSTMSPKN
T1 sequence (Q02795 20-286, chain 8 of 4, further chain): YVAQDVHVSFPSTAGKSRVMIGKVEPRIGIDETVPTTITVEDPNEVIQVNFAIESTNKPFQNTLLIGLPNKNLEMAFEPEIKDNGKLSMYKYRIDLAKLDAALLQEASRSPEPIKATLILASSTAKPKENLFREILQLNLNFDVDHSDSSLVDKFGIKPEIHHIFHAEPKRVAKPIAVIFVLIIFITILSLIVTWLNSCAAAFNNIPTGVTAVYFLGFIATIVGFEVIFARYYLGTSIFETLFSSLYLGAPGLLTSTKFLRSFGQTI

[2] = target: T2, WBP1, subunit of S. cerevisiae OST (S. cerevisiae, UniProt P33767 21-430); experiment: cryo-EM structure; nanodisc-reconstituted OST 2.5 uM incubated with 7.5 uM Dol20-PP-GlcNAc2Man9Glc3 and 500 uM TAMRA-YA(Dab)ATS peptide for 15 min before vitrification; MnCl2 present; the sample gave two states, LLO-bound (3.0 A) and ternary complex (3.1 A)
T2 construct: WBP1, non-catalytic subunit of S. cerevisiae OST; Stood in the assay within the whole OST complex; also called WPB1; source: S. cerevisiae, as a subunit of the purified OST complex (Rho-1D4 antibody Sepharose through OST4-1D4, SEC)
T2 sequence (looked up): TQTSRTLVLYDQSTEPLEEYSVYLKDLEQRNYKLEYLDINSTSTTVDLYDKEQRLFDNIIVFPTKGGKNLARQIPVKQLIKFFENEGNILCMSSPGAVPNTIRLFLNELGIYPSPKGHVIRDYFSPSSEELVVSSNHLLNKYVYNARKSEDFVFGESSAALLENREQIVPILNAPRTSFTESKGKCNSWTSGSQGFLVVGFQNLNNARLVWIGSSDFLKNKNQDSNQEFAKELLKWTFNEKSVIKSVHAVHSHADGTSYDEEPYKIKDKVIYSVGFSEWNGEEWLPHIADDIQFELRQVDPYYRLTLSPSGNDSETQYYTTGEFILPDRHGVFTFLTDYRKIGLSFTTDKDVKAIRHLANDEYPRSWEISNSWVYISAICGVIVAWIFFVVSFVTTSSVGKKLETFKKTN

[3] = target: T3, STT3, catalytic subunit of S. cerevisiae OST (S. cerevisiae, UniProt P39007 1-718); experiment: as above
T3 construct: STT3, catalytic subunit of S. cerevisiae OST; Stood in the assay within the whole OST complex; also called S.c; STT3; source: S. cerevisiae, as a subunit of the purified OST complex (Rho-1D4 antibody Sepharose through OST4-1D4, SEC)
T3 sequence: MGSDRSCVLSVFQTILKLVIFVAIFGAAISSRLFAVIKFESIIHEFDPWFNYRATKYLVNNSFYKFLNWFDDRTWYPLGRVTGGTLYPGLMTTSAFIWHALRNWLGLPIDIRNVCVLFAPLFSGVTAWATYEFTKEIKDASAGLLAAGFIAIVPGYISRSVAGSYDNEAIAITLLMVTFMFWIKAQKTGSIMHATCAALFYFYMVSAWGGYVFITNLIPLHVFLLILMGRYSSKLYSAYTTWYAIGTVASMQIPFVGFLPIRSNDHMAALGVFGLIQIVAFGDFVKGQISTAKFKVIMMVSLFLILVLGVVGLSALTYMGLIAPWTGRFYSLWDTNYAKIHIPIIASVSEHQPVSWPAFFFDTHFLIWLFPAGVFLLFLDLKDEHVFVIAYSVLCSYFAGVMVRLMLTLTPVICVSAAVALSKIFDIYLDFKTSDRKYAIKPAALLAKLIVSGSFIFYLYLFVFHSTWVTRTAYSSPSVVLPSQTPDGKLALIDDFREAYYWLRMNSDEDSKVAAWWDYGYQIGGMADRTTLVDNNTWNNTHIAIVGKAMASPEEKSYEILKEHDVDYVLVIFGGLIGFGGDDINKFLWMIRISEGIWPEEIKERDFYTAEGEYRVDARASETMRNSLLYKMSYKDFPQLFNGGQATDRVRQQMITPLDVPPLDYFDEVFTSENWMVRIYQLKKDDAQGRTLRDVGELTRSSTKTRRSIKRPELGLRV

B1: TAMRA-YANATS-NH2 (peptide)
peptide: {5‑TAMRA}-YANATS-NH2
SMILES: C[C@H](NC(=O)[C@H](Cc1ccc(O)cc1)NC(=O)c1ccc(-c2c3ccc(N(C)C)cc3[o+]c3cc(N(C)C)ccc23)c(C(=O)[O-])c1)C(=O)N[C@@H](CC(N)=O)C(=O)N[C@@H](C)C(=O)N[C@H](C(=O)N[C@@H](CO)C(N)=O)[C@@H](C)O
notes: acceptor substrate of OST; also called 5-TAMRA-YANATS; reactive peptide; source: bought: Genscript
- binding result [1]: binds

- binding result [2]: binds
B2: OST2, subunit of S. cerevisiae OST (natural protein)
chain: MAKAPKANTPKVTSTSSAVLTDFQETFKTSKRAYFAQIEKYPKLKLIDTFCFFLVLLGVIQCTFIILIRDNFPFNAFLAGFIICVGQFVLLMSLRLQLCNSFPGISKNRAFAEFIVASLILHFVCLHFIN
notes: OST2, non-catalytic subunit of S. cerevisiae OST; Stood in the assay within the whole OST complex; source: S. cerevisiae, as a subunit of the purified OST complex (Rho-1D4 antibody Sepharose through OST4-1D4, SEC)

- binding result [3]: binds
B3: OST3, subunit of S. cerevisiae OST (natural protein, UniProt P48439 23-350, looked up)
chain: MSSNRLLKLANKSPKKIIPLKDSSFENILAPPHENAYIVALFTATAPEIGCSLCLELESEYDTIVASWFDDHPDAKSSNSDTSIFFTKVNLEDPSKTIPKAFQFFQLNNVPRLFIFKPNSPSILDHSVISISTDTGSERMKQIIQAIKQFSQVNDFSLHLPMDWTPIITSTIITFITVLLFKKQSKLMFSIISSRIIWATLSTFFIICMISAYMFNQIRNTQLAGVGPKGEVMYFLPNEFQHQFAIETQVMVLIYGTLAALVVVLVKGIQFLRSHLYPETKKAYFIDAILASFCALFIYVFFAALTTVFTIKSPAYPFPLLRLSAPFK
notes: OST3, oxidoreductase subunit of S. cerevisiae OST; Stood in the assay within the whole OST complex; source: S. cerevisiae (YEp352-OST3), as a subunit of the purified OST complex (Rho-1D4 antibody Sepharose through OST4-1D4, SEC)
